# T1: recombinant human CD122 (human, UniProt P14784 27-239, limits assumed)
# T1 construct: also called IL-2Rβ
# T1 sequence (looked up): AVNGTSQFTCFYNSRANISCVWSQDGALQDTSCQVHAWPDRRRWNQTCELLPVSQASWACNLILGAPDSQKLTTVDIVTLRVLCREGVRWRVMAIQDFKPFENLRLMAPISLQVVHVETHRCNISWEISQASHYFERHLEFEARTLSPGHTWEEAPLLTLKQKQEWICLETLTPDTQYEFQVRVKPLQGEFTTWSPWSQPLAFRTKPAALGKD
# T2: recombinant human CD132 (human, UniProt P31785 23-262, limits assumed)
# T2 construct: also called IL-2Rγ
# T2 sequence (looked up): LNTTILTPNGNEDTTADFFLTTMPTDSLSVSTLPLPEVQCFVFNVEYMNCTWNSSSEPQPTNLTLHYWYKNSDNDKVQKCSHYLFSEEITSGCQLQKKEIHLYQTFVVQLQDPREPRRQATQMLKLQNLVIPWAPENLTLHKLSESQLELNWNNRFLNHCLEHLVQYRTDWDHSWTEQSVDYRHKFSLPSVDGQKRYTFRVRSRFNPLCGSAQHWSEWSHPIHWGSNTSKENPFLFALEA
# Legend:
# recombinant human CD122 = molecular target: T1, recombinant human CD122; test: GCI (WAVEsystem)
# Experimental: (§1) Binding affinity and kinetics constants of humanized CD122/CD132 FIT-Ig were determined using a label-free biosensor on WAVEsystem (Creoptix AG, Switzerland) by grating-coupled interferometry (GCI). Briefly, a PCP WAVEchip (Creoptix AG) was pre-immobilized with goat anti-human IgG Fc antibody to a density of 3830 pg/mm² by amine coupling, and used to capture humanized CD122/CD132 FIT-Ig generated from Example 3.2.1 to a density of ˜90 pg/mm², then exposed to recombinant human/cyno CD122 or CD132 serially diluted (3× dilutions from 200 nM to […] for human CD122, human CD132 and cyno CD132, respectively; and from 1000 nM to 1.37 nM for cyno CD122) in 1X HBS-EP+ buffer (Cytiva, Cat No. BR100669) by injection at 60 μL/min for 250s to assess association, followed by 1200s dissociation. After each round of association and dissociation, WAVEchip surface was regenerated by subject to pH 1.5 Glycine-HCl buffer injection at 60 μL/min for 120s. Sensorgrams were recorded at 25° C., the data were analyzed on WAVEcontrol (Creoptix AG) and double referenced by subtracting the signals from blank injections and the reference channel. A Langmuir 1:1 model was used for data fitting.
# recombinant human CD132 = molecular target: T2, recombinant human CD132; test: GCI (WAVEsystem)
# Experimental: as §1
Binder,binding result (recombinant human CD122),binding result (recombinant human CD132)
"huFIT2019-86b-17 (bispecific antibody, human IgG1, kappa, L234A L235A) chain 1: not shown chain 2: EVQLVQSGAEVKKPGASVKVSCKASGYTFTDYVISWVRQATGQGLEWMGEIYPGDAQTYYNEMFKGRVTMTRDTSISTAYMELSSLRSEDTAVYYCARGSYTYDNYAMDFWGQGTTVTVSSASTKGPSVFPLAPSSKSTSGGTAALGCLVKDYFPEPVTVSWNSGALTSGVHTFPAVLQSSGLYSLSSVVTVPSSSLGTQTYICNVNHKPSNTKVDKKVEPKSC chain 3: not shown",binds,binds
"huFIT2019-86b-26 (bispecific antibody, human IgG1, kappa, L234A L235A) chain 1: not shown chain 2: EVQLVQSGAEVKKPGASVKVSCKASGYTFTDYVISWVRQATGQGLEWMGEIYPGDAQTYYNEMFKGRVTLTADTSISTAYMELSSLRSEDTAVYYCARGSYTYDNYAMDFWGQGTTVTVSSASTKGPSVFPLAPSSKSTSGGTAALGCLVKDYFPEPVTVSWNSGALTSGVHTFPAVLQSSGLYSLSSVVTVPSSSLGTQTYICNVNHKPSNTKVDKKVEPKSC chain 3: not shown",binds,binds
"huFIT2019-86b-11 (bispecific antibody, human IgG1, kappa, L234A L235A) chain 1: not shown chain 2: EVQLVQSGAEVKKPGASVKVSCKASGYTFTDYVISWVRQATGQGLEWMGEIYPGDAQTYYNEMFKGRVTMTRDTSISTAYMELSSLRSEDTAVYYCARGSYTYDNYAMDFWGQGTTVTVSSASTKGPSVFPLAPSSKSTSGGTAALGCLVKDYFPEPVTVSWNSGALTSGVHTFPAVLQSSGLYSLSSVVTVPSSSLGTQTYICNVNHKPSNTKVDKKVEPKSC chain 3: not shown",binds,binds
"huFIT2019-86b-20 (bispecific antibody, human IgG1, kappa, L234A L235A) chain 1: not shown chain 2: EVQLVQSGAEVKKPGASVKVSCKASGYTFTDYVISWVRQATGQGLEWMGEIYPGDAQTYYNEMFKGRVTLTADTSISTAYMELSSLRSEDTAVYYCARGSYTYDNYAMDFWGQGTTVTVSSASTKGPSVFPLAPSSKSTSGGTAALGCLVKDYFPEPVTVSWNSGALTSGVHTFPAVLQSSGLYSLSSVVTVPSSSLGTQTYICNVNHKPSNTKVDKKVEPKSC chain 3: not shown",binds,binds
"huFIT2019-86b-24 (bispecific antibody, human IgG1, kappa, L234A L235A) chain 1: not shown chain 2: EVQLVQSGAEVKKPGASVKVSCKASGYTFTDYVISWVRQATGQGLEWMGEIYPGDAQTYYNEMFKGRVTMTADTSISTAYMELSSLRSEDTAVYYCARGSYTYDNYAMDFWGQGTTVTVSSASTKGPSVFPLAPSSKSTSGGTAALGCLVKDYFPEPVTVSWNSGALTSGVHTFPAVLQSSGLYSLSSVVTVPSSSLGTQTYICNVNHKPSNTKVDKKVEPKSC chain 3: not shown",binds,binds
"huFIT2019-86b-18 (bispecific antibody, human IgG1, kappa, L234A L235A) chain 1: not shown chain 2: EVQLVQSGAEVKKPGASVKVSCKASGYTFTDYVISWVRQATGQGLEWMGEIYPGDAQTYYNEMFKGRVTMTADTSISTAYMELSSLRSEDTAVYYCARGSYTYDNYAMDFWGQGTTVTVSSASTKGPSVFPLAPSSKSTSGGTAALGCLVKDYFPEPVTVSWNSGALTSGVHTFPAVLQSSGLYSLSSVVTVPSSSLGTQTYICNVNHKPSNTKVDKKVEPKSC chain 3: not shown",binds,binds
"huFIT2019-86b-15 (bispecific antibody, human IgG1, kappa, L234A L235A) chain 1: not shown chain 2: EVQLVQSGAEVKKPGASVKVSCKASGYTFTDYVISWVKQATGQGLEWIGEIYPGDAQTYYNEMFKGRATLTADKSISTAYMELSSLRSEDTAVYYCARGSYTYDNYAMDFWGQGTTVTVSSASTKGPSVFPLAPSSKSTSGGTAALGCLVKDYFPEPVTVSWNSGALTSGVHTFPAVLQSSGLYSLSSVVTVPSSSLGTQTYICNVNHKPSNTKVDKKVEPKSC chain 3: not shown",binds,binds
"huFIT2019-86b-23 (bispecific antibody, human IgG1, kappa, L234A L235A) chain 1: not shown chain 2: EVQLVQSGAEVKKPGASVKVSCKASGYTFTDYVISWVRQATGQGLEWMGEIYPGDAQTYYNEMFKGRVTMTRDTSISTAYMELSSLRSEDTAVYYCARGSYTYDNYAMDFWGQGTTVTVSSASTKGPSVFPLAPSSKSTSGGTAALGCLVKDYFPEPVTVSWNSGALTSGVHTFPAVLQSSGLYSLSSVVTVPSSSLGTQTYICNVNHKPSNTKVDKKVEPKSC chain 3: not shown",binds,binds
"huFIT2019-86b-19 (bispecific antibody, human IgG1, kappa, L234A L235A) chain 1: not shown chain 2: EVQLVQSGAEVKKPGASVKVSCKASGYRFSDYVISWVRQATGQGLEWMGEIYPGDAQTYYNEMFKGRVTMTADTSISTAYMELSSLRSEDTAVYYCARGSYTYDNYAMDFWGQGTTVTVSSASTKGPSVFPLAPSSKSTSGGTAALGCLVKDYFPEPVTVSWNSGALTSGVHTFPAVLQSSGLYSLSSVVTVPSSSLGTQTYICNVNHKPSNTKVDKKVEPKSC chain 3: not shown",binds,binds
"huFIT2019-86b-14 (bispecific antibody, human IgG1, kappa, L234A L235A) chain 1: not shown chain 2: EVQLVQSGAEVKKPGASVKVSCKASGYTFTDYVISWVRQATGQGLEWMGEIYPGDAQTYYNEMFKGRVTLTADTSISTAYMELSSLRSEDTAVYYCARGSYTYDNYAMDFWGQGTTVTVSSASTKGPSVFPLAPSSKSTSGGTAALGCLVKDYFPEPVTVSWNSGALTSGVHTFPAVLQSSGLYSLSSVVTVPSSSLGTQTYICNVNHKPSNTKVDKKVEPKSC chain 3: not shown",binds,binds
"huFIT2019-86b-12 (bispecific antibody, human IgG1, kappa, L234A L235A) chain 1: not shown chain 2: EVQLVQSGAEVKKPGASVKVSCKASGYTFTDYVISWVRQATGQGLEWMGEIYPGDAQTYYNEMFKGRVTMTADTSISTAYMELSSLRSEDTAVYYCARGSYTYDNYAMDFWGQGTTVTVSSASTKGPSVFPLAPSSKSTSGGTAALGCLVKDYFPEPVTVSWNSGALTSGVHTFPAVLQSSGLYSLSSVVTVPSSSLGTQTYICNVNHKPSNTKVDKKVEPKSC chain 3: not shown",binds,binds
"huFIT2019-86b-16 (bispecific antibody, human IgG1, kappa, L234A L235A) chain 1: not shown chain 2: EVQLVQSGAEVKKPGASVKVSCKASGYRFSDYVISWVKQATGQGLEWIGEIYPGDAQTYYNEMFKGRATLTADKSISTAYMELSSLRSEDTAVYFCARGSYTYDNYAMDFWGQGTTVTVSSASTKGPSVFPLAPSSKSTSGGTAALGCLVKDYFPEPVTVSWNSGALTSGVHTFPAVLQSSGLYSLSSVVTVPSSSLGTQTYICNVNHKPSNTKVDKKVEPKSC chain 3: not shown",binds,binds
"huFIT2019-86b-27 (bispecific antibody, human IgG1, kappa, L234A L235A) chain 1: not shown chain 2: EVQLVQSGAEVKKPGASVKVSCKASGYTFTDYVISWVKQATGQGLEWIGEIYPGDAQTYYNEMFKGRATLTADKSISTAYMELSSLRSEDTAVYYCARGSYTYDNYAMDFWGQGTTVTVSSASTKGPSVFPLAPSSKSTSGGTAALGCLVKDYFPEPVTVSWNSGALTSGVHTFPAVLQSSGLYSLSSVVTVPSSSLGTQTYICNVNHKPSNTKVDKKVEPKSC chain 3: not shown",binds,binds
"huFIT2019-86b-25 (bispecific antibody, human IgG1, kappa, L234A L235A) chain 1: not shown chain 2: EVQLVQSGAEVKKPGASVKVSCKASGYRFSDYVISWVRQATGQGLEWMGEIYPGDAQTYYNEMFKGRVTMTADTSISTAYMELSSLRSEDTAVYYCARGSYTYDNYAMDFWGQGTTVTVSSASTKGPSVFPLAPSSKSTSGGTAALGCLVKDYFPEPVTVSWNSGALTSGVHTFPAVLQSSGLYSLSSVVTVPSSSLGTQTYICNVNHKPSNTKVDKKVEPKSC chain 3: not shown",binds,binds
"huFIT2019-86b-13 (bispecific antibody, human IgG1, kappa, L234A L235A) chain 1: not shown chain 2: EVQLVQSGAEVKKPGASVKVSCKASGYRFSDYVISWVRQATGQGLEWMGEIYPGDAQTYYNEMFKGRVTMTADTSISTAYMELSSLRSEDTAVYYCARGSYTYDNYAMDFWGQGTTVTVSSASTKGPSVFPLAPSSKSTSGGTAALGCLVKDYFPEPVTVSWNSGALTSGVHTFPAVLQSSGLYSLSSVVTVPSSSLGTQTYICNVNHKPSNTKVDKKVEPKSC chain 3: not shown",binds,binds
"huFIT2019-86b-21 (bispecific antibody, human IgG1, kappa, L234A L235A) chain 1: not shown chain 2: EVQLVQSGAEVKKPGASVKVSCKASGYTFTDYVISWVKQATGQGLEWIGEIYPGDAQTYYNEMFKGRATLTADKSISTAYMELSSLRSEDTAVYYCARGSYTYDNYAMDFWGQGTTVTVSSASTKGPSVFPLAPSSKSTSGGTAALGCLVKDYFPEPVTVSWNSGALTSGVHTFPAVLQSSGLYSLSSVVTVPSSSLGTQTYICNVNHKPSNTKVDKKVEPKSC chain 3: not shown",binds,binds
"huFIT2019-86b-22 (bispecific antibody, human IgG1, kappa, L234A L235A) chain 1: not shown chain 2: EVQLVQSGAEVKKPGASVKVSCKASGYRFSDYVISWVKQATGQGLEWIGEIYPGDAQTYYNEMFKGRATLTADKSISTAYMELSSLRSEDTAVYFCARGSYTYDNYAMDFWGQGTTVTVSSASTKGPSVFPLAPSSKSTSGGTAALGCLVKDYFPEPVTVSWNSGALTSGVHTFPAVLQSSGLYSLSSVVTVPSSSLGTQTYICNVNHKPSNTKVDKKVEPKSC chain 3: not shown",binds,binds
